Measured values taken from patent US20170355757A1 (Regeneron, published 2017).
Substitutions are numbered along the chain they refer to. Numbers in names are those of the source.

B1: H2aM11695N (antibody, mouse IgG2, V domains shown)
VH: QVHLVQSGAEVKKPGASVKVSCKVSGNTLTELSMHWVRQAPGKGLEWMGGFDPEDGDTIYSQKFQGRVTLTEDTSTDTAYMELSSLRSEDTAVYYCSTVGGPTSDCWGQGTLVTVSS
VL: DIQMTQSPSSLSASVGDRVTITCQASQDISNYLNWYQQKPGKAPKVLIFDASNLEPGVPSRFSGSGSGTDFTFTIISLQPEDIATYYCQQYDNLPITFGQGTRLDIK
B2: H2aM11682N (antibody, mouse IgG2, V domains shown)
VH: QEQLVQSGAEVKKPGASVKVSCKASGYTFTGYYIHWVRQAPGLGLEWMGWINPNSGGTKYAQKFQGRVTMTRDTSINTAYMELKRLKSDDSAVYYCARDAPPHDVFDIWGQGTLVTVSS
VL: DIQMTQSPSSLSASVGDRVTITCRASQGIRNDLGWYQQKPGKAPKRLIYAASSLQIGVPSRFSGSGSGTEFTLTISSLQPEDFATYYCLQHNSYPLTFGGGTKVEIK
B3: H2aM11694N (antibody, mouse IgG2, V domains shown)
VH: EVQLVESGGGVVRPGGSLRLSCAASGFTFDDYGMTWVRQAPGKGLEWVSGINWNGDSTEYSDSVKGRFTISRDNAKNSLYLQMNSLRAEDTAFYHCARENNWNFYFDYWGQGTLVTVSS
VL: EIVMTQSPATLSVSRGERATLSCRASQSVSSNLAWYQQKLGQAPRLLIYGASTRATGIPARFSGSGSGTEFTLTISSLQSEDFAVYYCQQYNNWPWTFGQGTKVEIK
B4: H2aM11684N (antibody, mouse IgG2, V domains shown)
VH: QVQLQESGPGLVKPSQTLSLTCTVSGGSISSGAYHWSWIRQHPGKGLEWIGYIYYNGDTYYNPSLKSRVTISVDTSKNQFFLKVTSVTAADTAMYYCAGEKQLTAFDIWGQGTLVTVSS
VL: VIQMTQSPSSLSASVGDRVTITCRASQDINNFLNWYQQKLGKAPKLLISDASNLQTGVPSRFSGSGSGTDFTFTISSLQPEDIAAYYCQQYDHFPYTFGQGTRLENN
B5: H4H12166P4 (antibody, human IgG4, V domains shown)
VH: QVQLQESGPGLVKPSETLSLTCTVSGDSVSSSYWTWIRQPPGKGLEWIGYIYYSGSSNYNPSLKSRATISVDTSKNQFSLKLSSVTAADTAVYYCAREGNVDTTMIFDYWGQGTLVTVSS
VL: AIQMTQSPSSLSASVGDRVTITCRASQGIRNDLGWYQQKPGKAPKLLIYAASSLQSGVPSRFAGRGSGTDFTLTISSLQPEDFATYYCLQDFNYPWHFGQGTKVEIK
notes: histidine-mutated CDR variant of H4H12166P; human IgG4 (S108P)
B6: H4H12166P9 (antibody, human IgG4, V domains shown)
VH: B5 VH with T103H
VL: B5 VL
notes: as for B5
B7: H4H12166P6 (antibody, human IgG4, V domains shown)
VH: B5 VH with T103H
VL: B5 VL with H97T
notes: as for B5
B8: H4H12166P7 (antibody, human IgG4, V domains shown)
VH: B5 VH with G99H
VL: B5 VL
notes: as for B5
B9: H4H12166P10 (antibody, human IgG4, V domains shown)
VH: B5 VH with F107H
VL: B5 VL
notes: as for B5
B10: H4H12166P5 (antibody, human IgG4, V domains shown)
VH: B5 VH with F107H
VL: B5 VL with H97T
notes: as for B5
B11: H4H12166P8 (antibody, human IgG4, V domains shown)
VH: B5 VH with T103H
VL: B5 VL with L89H, H97T
notes: as for B5

target: T1, hC5a (human, UniProt P01031 678-751); assay: cell-based or functional assay
T1 sequence (looked up): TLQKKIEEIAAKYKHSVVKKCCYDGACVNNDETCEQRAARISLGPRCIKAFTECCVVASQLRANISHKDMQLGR

In order of rising “IC50, inhibition of 500 pM hC5a in HEK293/Gα16/hC5aR1/NFAT-luc cells” value:
1. B4  3.5e-11 M
2. B1  4.2e-11 M
3. B3  1.4e-10 M
4. B2  4.6e-10 M

target: T2, human C5 (human, UniProt P01031 19-1676); assay: SPR (Biacore), mAb captured, dissociation of human C5 at pH7.4 vs pH6.0, 37°C
T2 construct: native C5 purified from plasma (EMD) in the Biacore and Octet assays, C5 of normal human serum in the CDC and hemolysis assays; two chains (alpha and beta); also called hC5; complement factor 5
Procedure, shortened: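 Anti-C5 mAbs (human IgG4 Fc) captured on an amine-coupled mouse anti-human Fc surface; recombinant C5 dissociation followed by Biacore T200 in PBS-T (0.01M phosphate, 0.15M NaCl, 0.05% Tween-20) at pH7.4 or pH6.0. Dissociative half-life (t½) calculated from kd.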

In order of rising “t½ Ratio pH7.4/pH6.0” value:
1. B5  7.6
2. B10  7.6
3. B7  8.2
4. B9  19
5. B8  21
6. B6  28
7. B11  36

target: T2, human C5; assay: cell-based or functional assay

In order of rising “Human AP % Max Inhibition, hemolysis assay, 5% NHS” value:
1. B6  72.2%
2. B11  73.3%
3. B5  77%
4. B10  77.7%
5. B7  82.4%
6. B8  83.2%

In order of falling “Human AP IC50, hemolysis assay, 5% NHS” value:
1. B8  156 nM
2. B11  73 nM
3. B10  65.5 nM
4. B6  53.5 nM
5. B5  31.7 nM
6. B7  28.4 nM

In order of rising “Human CP % Max Inhibition, hemolysis assay, 5% NHS” value:
1. B9  74%
2. B6  93.7%
3. B8  93.7%
4. B11  95.7%
5. B10  97.1%
6. B7  98.1%
7. B5  98.6%

In order of falling “Human CP IC50, hemolysis assay, 5% NHS” value:
1. B9  44.4 nM
2. B8  24.3 nM
3. B10  14.9 nM
4. B11  14.1 nM
5. B5  13.2 nM
6. B6  11.6 nM
7. B7  10.3 nM

target: T2, human C5; assay: cell-based or functional assay; remark: another data set of the same source

In order of falling “IC50, inhibition of CDC of Daudi cells, 1.66% human serum, 2 nM anti-CD20 antibody” value:
1. B9  12 nM
2. B8  7.3 nM
3. B10  4.9 nM
4. B11  4.1 nM
5. B6  3.9 nM
6. B5  3.5 nM
7. B7  3 nM

target: African green monkey C5 (African green monkey); assay: cell-based or functional assay

Going from B5 to B6, the “IC50, inhibition of CDC of Daudi cells, 1.66% African Green monkey serum, 10 nM anti-CD20 antibody” value rises from 7.9 nM to over 10 nM.

First: B7
Second: B8
The “IC50, inhibition of CDC of Daudi cells, 1.66% African Green monkey serum, 10 nM anti-CD20 antibody” value of the first is lower: 9.9 nM for the first, over 60 nM for the second.

B9 and B10 cannot be ordered by “IC50, inhibition of CDC of Daudi cells, 1.66% African Green monkey serum, 10 nM anti-CD20 antibody” value: over 100 nM for the first, over 30 nM for the second.

B11 was tested, and the “IC50, inhibition of CDC of Daudi cells, 1.66% African Green monkey serum, 10 nM anti-CD20 antibody” value was over 20 nM.

In order of falling “Max % Inhibition of CDC of Daudi cells, 1.66% African Green monkey serum, 10 nM anti-CD20 antibody” value:
1. B6  85%
2. B11  79%
3. B10  75%
4. B8  61%
5. B9  34%

target: human C5 R885H-mmh (human, UniProt P01031 19-1676); assay: cell-based or functional assay

In order of rising “IC50, inhibition of CDC of Daudi cells, C5 depleted human serum and 6.6 nM C5 Variant R885H, 7 nM anti-CD20 antibody” value:
1. B7  1.3 nM
2. B5  1.5 nM
3. B6  1.7 nM
4. B10  2.1 nM
5. B11  2.1 nM
6. B8  4.2 nM
7. B9  7 nM

target: human C5 R885C-mmh (human, UniProt P01031 19-1676); assay: cell-based or functional assay

In order of falling “IC50, inhibition of CDC of Daudi cells, C5 depleted human serum and 6.6 nM C5 Variant R885C, 30 nM anti-CD20 antibody” value:
1. B9  3.5 nM
2. B8  2.3 nM
3. B10  1.4 nM
4. B11  1.2 nM
5. B5  0.96 nM
6. B7  0.79 nM
7. B6  0.77 nM
